Results reported in patent US20200347135A1 (published 2020).
Substitutions are numbered along the chain they refer to. Where two headings read alike, the source gives them in different places.

B1: AS06962 sdAb (VHH)
VHH: QVHLVDSGGGLVQPGGSLRLSCAASGSITSRNTMGWYRQVPGKQRELVALIATFVTHYADSVKGRFTISRDNARKMVFLEMNSLQPEDTGAYYCYVDVSPYWGRGTQVTVSS
B2: AS15872 sdAb (VHH)
VHH: QVQLVESGGGLVQPGGSLTLSCAASGFTFSTAAMSWVRQVPEEGLEWVASIDSSGSRTYYAGSVKGRFTISRDNAKNTLYLQLNSLKAEDTAMYYCAKDHMSWLPRGQGTQVTVSS
B3: AS25067_HCAb (antibody, V domains shown)
VH: QVHLMESGGGAVQTGGSLRLSCAVSGISISPDCMGWFRQAPGKKREAVTTIFANTGSARYGDSVKGRFTSSQGNAKNTLYLQMDSVKLDDTGTYYCAARFTGGDCFDHQPLAWRFWGQGTQVTVSS
B4: AS24984_HCAb (antibody, V domains shown)
VH: QVHLMESGGGSVPSGGSLRLSCAVSGSGYSYSRGCFAWFQQRPGKEREGVAIINMDGHTRYSDSVQGRFIISQDKAKNTLHLQMNTLRPDDTAMYYCAYDRSQCYVLSDRLRLPGTFSDWGQGTQVTVSS
B5: AS25064_HCAb (antibody, V domains shown)
VH: QVQLVESGGGSVQAGGSLRLTCAATGYSWRPDCMGWYRQAAEKEREGVAVIDADGITSYADAAKGRFTISRDNNKITLYLQMLKPDDTGMYVCVVGWRVSSGGNCQFNDYWGQGTQVTVSS
B6: AS25119_HCAb (antibody, V domains shown)
VH: B5 VH with S17P, K75N, V95I
B7: AS15899 sdAb (VHH)
VHH: QVQLVESGGGSVQAGGSLRLSCAASGYTAGSLCMGWFRQAPGKEREGVAAIYTGGGSTYYADSVKGRFTISQDNAKNTVYLQMNSLKPEDTAQYYCGAGSREDYCDRGYIYDHWGQGTQVTVSS
B8: AS25117_HCAb (antibody, V domains shown)
VH: EVQLAESGGGSVQAGGSLRLSCVISGTSISPDCMGWFRQAPGKKREAVMSIFTNTGSTRYGDSVKGRFTSSQGNAKNTLYLQMDSLKLDDTATYYCAARYTGGDCFNLEPLAWRFWGQGTQVTVSS
B9: AS25396_HCAb (antibody, V domains shown)
VH: QVHLMESGGGSVQAGGSLRLSCVVSGISISPDCMGWFRQAPGKKREAVATIFTNTRRTRYGDSVKGRVTSSQGNAKNTLYLKMDNLRHDDTATYYCAARYTGGDCFNLDPLSWRFWGQGTQVTVSS
B10: AS15892 sdAb (VHH)
VHH: QIQLVESGGGSVQAGGSLRLSCAASGFTDSSYCGAWFRQVPGKEREGVAIIDRYGGTMYKDSVKGRFTISKDTAKNILYLQMNSLKLEDTAMYYCAAAEYRGSSCDAESGYWGQGTQVTVSS
B11: AS15881 sdAb (VHH)
VHH: B10 VHH with I2V
B12: AS15883 sdAb (VHH)
VHH: B10 VHH with I2V, Q3H, V5M, R19T, G26V, S31N, G34M, E99G, E108D
B13: AS25222_HCAb (antibody, V domains shown)
VH: QIQLVESGGGSVQAGGSLRLSCAVTGISISPDCMGWFRQAPGKKREAVATIFTNTASTRYGDSVKGRFTSSQGNGKNTLYLQMDSLNVDDTATYYCAARYTGGNCFNLEPLAWHFWGQGTQVTVSS
B14: AS25457_HCAb (antibody, V domains shown)
VH: B8 VH with E1Q, A5V, V23A, I24V, T27I, M49A, S50T, G56R, L111V
B15: AS25115_HCAb (antibody, V domains shown)
VH: QVHLVESGGASVQAGGSLRLSCAATAYTASNYCMGWFRQSPGKEREAVASINDDGVTSYADSVKGRFTISQDSAKKTLYLQMNRLKPEDTAMYYCAATPDGYCYAERLSRWRYEFWGQGTQVTVSS
B16: AS25435_HCAb (antibody, V domains shown)
VH: B15 VH with H3Q, A10G, N31F, S40A, S58M, R66Q, K75T, D100E, R110T, E114T
B17: AS25037_HCAb (antibody, V domains shown)
VH: EVQLAESGGGSVQAGGSLKLSCLASQWISSDCGMAWYRQAPGKERELVSRISSDDTTTYADSVKGRFTISQDSAKNTLYLQMNKLKTEDTGVYYCAAEAKSTITSLCYPLNYWGQGTQVTVSS
B18: A31543 sdAb (VHH)
VHH: QVQLVESGGGKVQPGGSLRLSCAASGGTLDYYAIGWFRQAPGKEREAVSCISSSDGSTYYADSVKGRFTISRDNAKNTVYLQMNSLKPGDTAVYHCATDRACGSSWLGAESWAQGTQVTVSS
B19: AS25071_HCAb (antibody, V domains shown)
VH: EVQLAESGGGSVQSGGSLRLSCAVSGSGYSYSRGCFAWFQQRPGKEREGVAIINSDGHTAYSDSVQGRFIISQDKAKNTLYLQMNSLKPDDTAMYYCAYDRSQCYVLRDRLRLPDTFTDWGQGTQVTVSS
B20: AS25164_HCAb (antibody, V domains shown)
VH: B19 VH with A5V, S32N, A60T, S62G, Y81D, S102N
B21: AS25149_HCAb (antibody, V domains shown)
VH: B19 VH with E1Q, A5V, R19K, A60R, T92A, S102N, R108L, D115G, T118S
B22: AS25156_HCAb (antibody, V domains shown)
VH: B19 VH with A5V, A60R, R101C

Key:
[1] = biological target: recombinant PD-1 extracellular domain (ECD) protein (UniProt Q15116 25-170); test: SPR
Sequence of recombinant PD-1 extracellular domain (ECD) protein (Q15116 25-170): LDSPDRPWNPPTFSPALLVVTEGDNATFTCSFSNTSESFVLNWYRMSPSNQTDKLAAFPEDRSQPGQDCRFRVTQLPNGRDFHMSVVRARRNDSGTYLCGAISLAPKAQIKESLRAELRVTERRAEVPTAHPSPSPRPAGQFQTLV

[2] = biological target: T1, human PD-1 expressed on cells (UniProt Q15116 25-288); test: FACS competition with PD-L1 Fc
T1 sequence (Q15116 25-288): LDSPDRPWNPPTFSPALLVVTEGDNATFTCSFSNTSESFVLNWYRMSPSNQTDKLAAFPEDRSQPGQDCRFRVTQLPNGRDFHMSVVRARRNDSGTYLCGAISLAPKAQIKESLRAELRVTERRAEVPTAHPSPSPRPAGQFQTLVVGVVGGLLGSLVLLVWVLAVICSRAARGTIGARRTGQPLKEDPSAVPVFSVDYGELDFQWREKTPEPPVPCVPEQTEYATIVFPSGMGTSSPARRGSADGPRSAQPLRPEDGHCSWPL

[3] = biological target: T1, human PD-1 expressed on cells; test: FACS binding
[4] = biological target: T1, human PD-1 expressed on cells; test: FACS ligand competition (PD-L1 Fc)
[5] = biological target: T1, human PD-1 expressed on cells; test: FACS binding; remark: listed apart in the source
[6] = biological target: T1, human PD-1 expressed on cells; test: FACS binding; remark: listed apart in the source

Row | Binder | IC50 [4] | EC50 [5] | further results
1 | B1 | – | – | Kd [1]: 0.454 nM; IC50 [2]: 193 nM; EC50 [3]: 79.2 nM
2 | B2 | – | – | Kd [1]: 14.5 nM
3 | B3 | 3.51 nM | 4.96 nM | –
4 | B4 | 4.59 nM | 7.22 nM | –
5 | B5 | 2.91 nM | 5.46 nM | –
6 | B6 | 1.57 nM | 3.29 nM | –
7 | B7 | – | – | Kd [1]: 3.22 nM
8 | B8 | 2.06 nM | 3.22 nM | –
9 | B9 | 1.34 nM | 3.84 nM | –
10 | B10 | – | – | Kd [1]: 2.67 nM
11 | B11 | – | – | Kd [1]: 2.31 nM
12 | B12 | – | – | Kd [1]: 2.78 nM
13 | B13 | 1.66 nM | 4.59 nM | –
14 | B14 | 2.44 nM | 4.04 nM | –
15 | B15 | 2.15 nM | 4.06 nM | –
16 | B16 | 2.7 nM | 4.91 nM | –
17 | B17 | 6.58 nM | 6.62 nM | –
18 | B18 | – | – | IC50 [2]: 21.1 nM; EC50 [3]: 41.2 nM
19 | B19 | 2.41 nM | 4.74 nM | –
20 | B20 | 3.25 nM | 6.15 nM | –
21 | B21 | 8 nM | 10.7 nM | –
22 | B22 | 6.04 nM | 9.18 nM | EC50 [6]: 9.18 nM
